Data published in publication PMC11418285.

Columns and labels:
[1] = target: FcγRIIIa (CD16a) 158F allele (human) (UniProt P08637)
FcγRI (CD64) (human) = FcγRI (CD64) (human) (UniProt P12314)
Chain of UniProt P12314 (P12314 16-374): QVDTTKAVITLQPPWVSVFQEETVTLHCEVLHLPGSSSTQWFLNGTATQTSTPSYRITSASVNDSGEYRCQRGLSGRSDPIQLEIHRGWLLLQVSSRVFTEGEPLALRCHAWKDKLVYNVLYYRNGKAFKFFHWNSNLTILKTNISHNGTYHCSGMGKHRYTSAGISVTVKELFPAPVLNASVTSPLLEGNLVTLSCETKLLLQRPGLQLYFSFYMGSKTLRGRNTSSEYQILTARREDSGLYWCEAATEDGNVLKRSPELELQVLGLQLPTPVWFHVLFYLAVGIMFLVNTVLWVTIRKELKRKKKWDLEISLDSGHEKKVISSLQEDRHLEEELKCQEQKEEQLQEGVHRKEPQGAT

Chain of UniProt P08637 (P08637 17-254): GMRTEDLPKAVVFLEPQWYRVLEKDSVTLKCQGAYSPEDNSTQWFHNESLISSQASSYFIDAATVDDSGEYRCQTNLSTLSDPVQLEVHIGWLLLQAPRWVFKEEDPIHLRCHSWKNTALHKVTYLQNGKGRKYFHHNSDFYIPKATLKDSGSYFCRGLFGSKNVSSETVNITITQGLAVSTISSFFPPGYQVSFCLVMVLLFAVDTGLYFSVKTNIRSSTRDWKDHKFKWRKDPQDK

ADCC activity, Fc effector cell reporter bioassay, relative to wild-type IgG1 [1] | ADCP activity, Fc effector cell reporter bioassay, relative to wild-type IgG1 (FcγRI (CD64) (human)) | Substance
201 fold | – | anti-CD20 antibody with rituximab V regions, afucosylated wild-type human IgG1
– | 1.87 fold | anti-CD20 antibody with rituximab V regions, human IgG1 S239D A330L I332E
